Test: yeast display, Sf9 membrane polyspecificity reagent, FACS + sequencing; frameworks hold sequencing errors
Procedure, shortened: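 Using colony PCR, genes from sorted yeast display clones were amplified, then sequenced on MiSeq at 2 × 250 and filtered by CDR length. The clones had been stained with 10% biotinylated, detergent-solubilized Sf9 membrane reagent for 1 hour at 4 °C and sorted by FACS into low and high (top ~1%) gates on anti-HA and streptavidin fluorescence. Polyreactivity labels come from the gate of origin.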

Sequence	polyreactivity (PSR sort gate)
QDQHVESGRGLVQEGGSLRLSSPPSGRTIYEYAIGWYRQAPGKETQLVAGITTSGGSTYYAVSVKGRFTISRDNAKNTVYLQMNSLKPEDTAVYYCAKYRKSRGDNDSWGQGTQVTVSS	high polyreactivity
QVQLVESVRGLVQAGGSLRLSCAASGRILPSNAMGWYRQAPGKERELVAGITSGGSTDYADSVKGRFTISRDNAKNTVYLQMNSLKPEDTAVYYCNKPFPYYPDGPNGYDYWGQGTQVTVSS	low polyreactivity
QVQLVESGGGLDQAGGSLRLSCAASGSTFPSYAMGWYRQAPGKERELVAAINSGGGTNYADSVKGRFTISRDNAKNTVYLQMNSLKPEDTAVYYCAKSRYDYTKTEGGYWGQGTQVTVSS	low polyreactivity
QVQLVESGGGLVQAGGSLRLSCAASGLTFDYYAMGWSRQAPGKERELVAAITSSGGRTYYADSVKGRFTISRDNAKNTVYLQMNSLKPEDTAVYYCAKRDSYYNGVGYWGQGTQVTVSS	low polyreactivity
QVQLVESGGGLVQAGGSLRLSCAASGRTFGYNAMGWYSQAPGKERELVAAISWSGGRTYYADSVKGRFTISRDNAKNTVYLQMNSLKPEDTAVYYCAALPSVTNRYYIYGYWGQGTQVTGSS	high polyreactivity
QVQLVESGGGLVQAGGSLRLSCAASGFIFGYNAMGWYRQAPGKERELVAAITWIGGTTYYADSVKGRFTISRDNAKNTVYLQMNSLKPEDTAVYYCARQRSYGRSSYSYGYDYWGQGTQVTVSS	high polyreactivity
QVQLVESGGGLVQAGGSLRLSCAASGRIFLRNAMGWYRQAPGKERELVANITSRGGSTYYADSVKGRFTISRDNAKNTVYLQMNSLKPEDTAVYYCAADPRRYRGFGYVYGGFYYWGQGTQVTVSS	low polyreactivity
QVQLVESGGGLVQAGGSLRLSCAASGITFEYYAMGWYRQAPGKERELVAAIDTVGSTNYADSVKGRFTISRDNAKNTVYLQMNSLKPEDTAVYYCAADWSWWDGEDYHFEYDYWGQGTQVTVSS	low polyreactivity
QVQLVESGGGLVQAGGSLRLSCAASGSIFQWNAMGWYRQAPGKERELVAAISTRGGRTYYADSVKGRFTISRDNAKNTDYLQMNSLKPEDTAVYYCAKQYGSYGRYYKYYYWGQGTQVTVSS	high polyreactivity
QVQLVESGGGLVQAGGSLRLSCAASGGTLQGNAMGWYRQAPGKERELVAAISSRGGRTYYADSVKGRFTISRDNANNTVYLQMNSLKPEDTAVYYCAAVQKGDSTLLRTKGGYWGQGTQVTVSS	high polyreactivity
QVQLVESGGGLVQAGGSLRLSCAASGRISQIYAMGWYRQAPWKERELVARITSTDSTYYADSVKGRFTISRDNAKNTVYLQMNSLKPEDTAVYYCAASWWSPYDYWGQGTQVTVSS	low polyreactivity
QVQLVESGGGLVQAGGSLRLSCAASGYTFTVYAMGWYRQAPGKERELVAAITWNGASTYYADSVKARFTISRDNAKKTVYLQMNSLKPEDTAVYNCADPNYFYRDRSRLDYWGQGTQVTVSS	low polyreactivity
QVQLVESGGGLVQAGGSLRLSCAASGSIFYRYAMGWYRQAPGKERELVSSISSGVSTNYADYVKGRFTISRDNAKNTVYLQINSLKREDTAVYYWAAYYRGWSSSYWFPAYNYWGQGTQVTVSS	low polyreactivity
QVQLVESGGGLVQAGGSLRLSCAASGRTFAGNAMGWYRQATGKERELVASITWTGGRTYYADSVKGRFTISRDNAKNTVYLQMNSLKPEDTAVYYCAARPDYYYFRGDYWGQGTQVTVSS	high polyreactivity
QVQLVESGGGLVQAGGSLRLSCAASGRIFYKYVRGCYRQAPGKDRELVATITSGGSTYYADSVKGRFTISRDNAKNTVYLQMNSLNPEDTAVYYCAARKYYSRAYDYWGQGTQVTVSS	high polyreactivity
QVQLVESGGGLVQAGGSLRLSCAASGLTFGTNAMGWYRQAPGKERELVAAISTSSGSTYYADSVKGRFTISRDNAKKTVYLQMNSLKQEDTAVYYCAAVTVTKLSYYRYYYWGQGTQVTVSS	low polyreactivity
QVQLVESGGGLVQAGGSLRLSCAASGSIFGRYVMGWYRQAPGKERELVAAISGSGTSTYYADSVKGRFTISRDNAKNTVFLQMNSLKPEDTAVYYCAARDIKSSHDYDYWGQGTQVTVSS	low polyreactivity
QVQLVESGGGLVQAGGSLRLSCAASGSTFRLYAMGWYRQAPGKERELVAVISRSGGRTYADSVKGRFTISRDNAKNTVYLQMNSLKPEDTAVYYCAKARHKSPTYTHDSWGQGTQVTVSS	high polyreactivity
QVQLVESGGGLVQAGGSLRLSCAASGRIFNANAMGWYRPAPGKESELVAAISSSGGSTYYSDSVKGRFTISRDNAKNTVYLHMNSLKPEDTAVYYCKDEWGWRYSSDFDYWGQGTQVTVSS	low polyreactivity
QVQLVESGGGLVQAGGSLRLSCAASGRTLRYYAMGWYRQAPGKERELVAAITKSGGSTYYADSVKGRFTISRDNAKNTVYLQMNSLKPEDTAVYYCNKVTYSRAQYIGGDGYYWGLGTQVTVSS	high polyreactivity
QVQLVESGGGLVQAGGSLRLSCAASGSTFLSNAMGWYRQAPGKERELVAAITIGGSTNYADSVKGRFTISRDNAKNTVYLQMNSLKPEDTAFYFCAADWYYDYAELTRDYDYWGQGTQVTVSS	low polyreactivity
QVQLVESGGGLVQAGGSLRLSCAASGRNFVNYAMGWYRQAPGKERELVAVISRSGGGTNYADSVKGRYTISRDNAKNTVYLQMNSLKPEDTAVYYCAASRKYGYGYWGQGTQVTVSS	high polyreactivity

Sequence	polyreactivity (PSR sort gate)
QVPLVDSGGGLVQAGGSVRLSCAASGSIFYVYALGWYRQAPGTERELVAAINPSGGSTYADSVKGRFTISRDNAKISVYLQMYSLKTEDNAVSYCAAEPEWWWRGYGYWGQGKQVTVSS	low polyreactivity
QDQLVESGGGLVQAGGSLRLSCAASGSISSKNAMGCYRQAPGKEREFVAVISGTGGSTYYSDSVKGRFTISRDNAKNTVYLQMNRLKPEDTAVYYCAAAGSSIVSYGYSWTYGYWGQGTQVTVSS	low polyreactivity
QVHLVESGGGLVQAGGSLRLRCAASGIIFRRYAMGWYRQAPGKESEFVAAIRYTGGGTYYADSVKGRFTISRDNAKNTVYLQMNSLQPEDTAVYYCAASSRVSKSHLYGYWGQGTQVTVSS	high polyreactivity
QVQLVESGGGLVQAGGSLRLSCAASGSIFTYNAMGWYRQAPGKERELVATISDGGSTYYADSVKGRFTISRDNAKNTVYLQMNSLKPEDTAVYYCNKDRVSVRYEYWGQGTQVTVSS	low polyreactivity
QVQLVESGGGLVQAGGSLRLSCAASGFIFNTMGWYRQARGKERELVARITRGGSTDYADSVKGRFTISRDNAKNTVYLQMNSLKPEDTAFYYCAAAIGHFERFYWGQGTQVTVSS	low polyreactivity
QVQLVESGGGLDQAGGSLRLSCAASGITFGFNAMGWYRQAPGIERELVAAITYRGGSTYYADSVKGRFTISGDNAKNTVYLQMNSLKPEDTAVYYCAADIGRHTDNYDPRYDYWGQGTQVTVSS	low polyreactivity
QVQLVESGGGLVQAGGSLRLSCAASGRIFAVNAMGLYRQAPGKERELVARIRRIGGSTYYADSVKGRFTISRDNAKNTVYLQMNSQKPEDTAVYYCAAVSRVWLNLYNYWGQGTQVTVSS	high polyreactivity
QVQLVESAGGFVQAGGSLRLSCAASGSIFTINAMGWYTQAPGKERELVAGIRWRGGSTYYADSVKGRVTISRDNAKNTVYFQMNSLKPEDTAVYYCNTRCLIRKFDYWGQGTQVTVSS	high polyreactivity
QVQLVESGGGLVQAGGSLRLSCAATGSNFINYAMGWYRQAPGKERELVAAYADSVKGRFTISRDNAKNTVYLQMNSLKPEDTAVYYCNAVTGEWGQGTQVTVSS	low polyreactivity
HVQLVESGGGLVQAGGSLRISCAASGRTFGHYAMGWNRQAPGKQRELVAVISGRNGDSTYYADSVKGRFTISRDNAKNTVYLQMNSLKPVYTAVYYCAAYKPWEYDYWGQGTEVTVSS	low polyreactivity
QVQLVESGGGLVQAGGSLRLSCAASGRTFVSYVMGWYRQAPGKERELVAAITWRGGSTYYADSVKGRFTISRDNAKNTVYLQMNSLKPEDTAVYYCAAPSHGSTSDRYYKFYYWGQGTQVTVSS	high polyreactivity
QVQLVESGGGLVQAGGSLSLSCAASGLIFITYAMGWYRQAPGKERELVATITLRGGSTYYADSVKGRFTISRDNAKNTVYLQMNSLKPEDTAVYYCAADVGYWGRSRGYPSDDYDYWGQGTQVTVSS	low polyreactivity
QVQLVESGGGLVQAGGSLRLSCAASGSIFTSYGMGWYRQAPGKERELVAAITYSGDRTYYADSVKGRFTISRDNAKITVYLQMNSLNPEDTAVYYCNVAYVYGSFRRRPMGYWGQGTQVTVSS	high polyreactivity
QLQLVESGGRLVQAAVSLRLSFAASGRTFYPYAMGWYRPAPGKERELVAAITSRGASTYYADSVKGRFTISRDNAKNTVYLQMNSLKPEDTAVYYCNSGRTYRRLGDYLGQGTQVTVSS	high polyreactivity
QVQLVESGGGLVQAGGSLRLSCSASGSTYYNAMGWYRQAPGKERQLVAAIRFRSGSTYYADSVKGRFTISRDNAKNTVYLQMNSLKPEDTAVYYCAADNKRSWRYAYTYWGQGTQVTVSS	high polyreactivity
QVQLVESGGGLVQAGGSLRLSCAASGSTFAGNGMGWYRQAPGKERELVAGIDVTGGSTYYADSVKGRFTSSRDNAKNTVYLQMNSLKPEDTAVYYCNARYVYHSSFAGFDYWGQGTQVTVSS	low polyreactivity
QVQLVESGGGLVQAGGSLRLSCAASGFTFESYTMGWYRQAPGKESELVAAINSGTSTYYADSVKGRFTISRDNAKNTVYLQMNSLKPEDTAVYYCNARRYRRYRKYDYWGQGTQVTVSS	high polyreactivity
QVQLVETGGCLVQAGGSLRLSCAASGFIFYIYAMGWYRQAPGKERELVAAITSGGSTYYADSVKGRFTITRDNAKNTVYLQMNSLKPDDTAVYYCASESYYGYDYWGQGTQVTVSS	low polyreactivity
QVQLVESGGGLVQAGGSLRLSCAASGSIFSYYDMGWYRQAPGKERELVAAIRWSGGITYADSVKGRFTISRDNAKNTVYLEMNSLKPEDTAVYYCAADQYYRSDYYYWGQGTQVTVSS	low polyreactivity
QVQLVESAGGLVQAGGSLRLTCDASGSTFGYYAMGLYRQAPGKEMELVAAITSNDGSTNYADSVKGRFTISRDNAKNTVYLQMNSLKPEDTAVYYCNARYFVAVISSFDYWGQGTQVTVSS	low polyreactivity
QVQLVESGGGLVQAGGSLRLSCAASGRILYQYAMAWYRQAPGKERELVASISGRSGRTRYADSVKGRFTISRDNAKNTVYLQMNSLKPEDTAVYYCNAGSSVLKYDYWGQGTQVTVSS	low polyreactivity
